From the PETadex activity labels (doi:10.1002/cbic.201800097)

Columns and labels:
PET [1] = assay: Proxy for plastic degradation [Released monomer concentration (HPLC/LC-MS) (TPA)]
PET [2] = assay: Proxy for plastic degradation [Released monomer concentration (HPLC/LC-MS) (MHET)]
BHET = assay: Proxy for plastic degradation [Released monomer concentration (HPLC/LC-MS) (MHET+TPA)]
[3] = pH 10.5, part of the chain shown

B1: unnamed (protein)
chain: MNFPRASRLMQAAVLGGLMAVSAAATAQTNPYARGPNPTAASLEASAGPFTVRSFTVSRPSGYGAGTVYYPTNAGGTVGAIAIVPGYTARQSSIKWWGPRLASHGFVVITIDTNSTLDQPSSRSSQQMAALRQVASLNGTSSSPIYGKVDTARMGVMGWSMGGGGSLISAANNPSLKAAAPQAPWDSSTNFSSVTVPTLIFACENDSIAPVNSSALPIYDSMSRNAKQFLEINGGSHSCANSGNSNQALIGKKGVAWMKRFMDNDTRYSTFACENPNSTRVSDFRTANCS
- Proxy for plastic degradation (PET [1]; pH 8, part of the chain shown): 0 nM
- Proxy for plastic degradation (PET [1]; pH 10, part of the chain shown): 0 nM
- Proxy for plastic degradation (PET [1]; [3]): 0 nM
- Proxy for plastic degradation (PET [2]; 25 °C, part of the chain shown): 1300 nM
- Proxy for plastic degradation (PET [2]; 30 °C, part of the chain shown): 5300 nM
- Proxy for plastic degradation (PET [2]; 35 °C, part of the chain shown): 2200 nM
- Proxy for plastic degradation (PET [2]; 40 °C, part of the chain shown): 0 nM
- Proxy for plastic degradation (PET [2]; pH 9, 25 °C, part of the chain shown): 10.5 nM
- Proxy for plastic degradation (PET [2]; pH 9, 30 °C, part of the chain shown): 12.9 nM
- Proxy for plastic degradation (PET [2]; pH 9, 35 °C, part of the chain shown): 8 nM
- Proxy for plastic degradation (PET [2]; pH 9, 40 °C, part of the chain shown): 5.5 nM
- Proxy for plastic degradation (PET [2]; pH 9, part of the chain shown): 12700 nM
- Proxy for plastic degradation (PET [2]; [3]): 0 nM
- Proxy for plastic degradation (BHET; pH 5, part of the chain shown): 0.58 µM
- Proxy for plastic degradation (BHET; pH 5.5, part of the chain shown): 0.9 µM
- Proxy for plastic degradation (BHET; pH 6, part of the chain shown): 1.51 µM
- Proxy for plastic degradation (BHET; pH 6.5, part of the chain shown): 1.72 µM
- Proxy for plastic degradation (BHET; pH 7, part of the chain shown): 1.72 µM
- Proxy for plastic degradation (BHET; pH 7.5, 25 °C, part of the chain shown): 0.95 µM
- Proxy for plastic degradation (BHET; pH 7.5, 30 °C, part of the chain shown): 1.75 µM
- Proxy for plastic degradation (BHET; pH 7.5, 35 °C, part of the chain shown): 1.04 µM
- Proxy for plastic degradation (BHET; pH 7.5, 40 °C, part of the chain shown): 0.65 µM
- Proxy for plastic degradation (BHET; pH 7.5, 45 °C, part of the chain shown): 0.3 µM
- Proxy for plastic degradation (BHET; pH 7.5, 50 °C, part of the chain shown): 0.17 µM
- Proxy for plastic degradation (BHET; pH 7.5, 55 °C, part of the chain shown): 0.14 µM
- Proxy for plastic degradation (BHET; pH 7.5, 60 °C, part of the chain shown): 0.16 µM
- Proxy for plastic degradation (BHET; pH 8, part of the chain shown): 1.65 µM
- Proxy for plastic degradation (BHET; pH 8.5, part of the chain shown): 1.47 µM
- Proxy for plastic degradation (BHET; pH 9, part of the chain shown): 1.1 µM
- Proxy for plastic degradation (BHET; pH 9.5, part of the chain shown): 0.47 µM

B2: unnamed (protein)
chain: MNFPRASRLMQAAVLGGLMAVSAAATAQTNPYARGPNPTAASLEASAGPFTVRSFTVSRPSGYGAGTVYYPTNAGGTVGAIAIVPGYTARQSSIKWWGPRLASHGFVVITIDTNSTLDQPSSRSSQQMAALRQVASLNGTSSSPIYGKVDTARMGVMGWSMGGGGSLISAANNPSLKAAAPQAPWDSSTNFSSVTVPTLIFACENDSIAPVASSALPIYDSMSRNAKQFLEINGGSHSCANSGNSNQALIGKKGVAWMKRFMDNDTRYSTFACENPNSTRVSDFRTANCS
- Proxy for plastic degradation (PET [1]; pH 9): 0 nM
- Proxy for plastic degradation (PET [2]; pH 9): 2 nM
- Proxy for plastic degradation (BHET; pH 7.5): 0.42 µM

B3: unnamed (protein)
chain: MNFPRASRLMQAAVLGGLMAVSAAATAQTNPYARGPNPTAASLEASAGPFTVRSFTVSRPSGYGAGTVYYPTNAGGTVGAIAIVPGYTARQSSIKWWGPRLASHGFVVITIDTNSTLDQPSSRSSQQMAALRQVASLNGTSSSPIYGKVDTARMGVMGWSMGGGGSLISAANNPSLKAAIPQAPWDSSTNFSSVTVPTLIFACENDSIAPVNSSALPIYDSMSRNAKQFLEINGGSHSCANSGNSNQALIGKKGVAWMKRFMDNDTRYSTFACENPNSTRVSDFRTANCS
- Proxy for plastic degradation (PET [1]; pH 9): 10.5 nM
- Proxy for plastic degradation (PET [2]; pH 9): 13.4 nM
- Proxy for plastic degradation (BHET; pH 7.5): 0.31 µM
